Experimental data from patent US20160289285A1 (Molecular Partners, published 2016).
Where a chain is given by its changes, count along the chain named. Where “and” joins values, the source holds several entries; their conditions need not be identical. Equal entries are not always repeated. Where two headings read alike, the source gives them in different places.

B1: human VEGF-A (ligand, UniProt P15692-4 27-191, looked up)
chain: APMAEGGGQNHHEVVKFMDVYQRSYCHPIETLVDIFQEYPDEIEYIFKPSCVPLMRCGGCCNDEGLECVPTEESNITMQIMRIKPHQGQHIGEMSFLQHNKCECRPKKDRARQENPCGPCSERRKHLFVQDPQTCKCSCKNTDSRCKARQLELNERTCRCDKPRR
notes: Recombinant, bought or produced in CHO or Pichia pastoris; also called hVEGF-A
B2: Protein #134 (designed binder)
chain: GSDLGKKLLEAARAGQDDEVRELLKAGADVNAKDYFSHTPLHLAARNGHLKIVEVLLKAGADVNAKDFAGKTPLHLAANEGHLEIVEVLLKAGADVNAQDIFGKTPADIAADAGHEDIAEVLQKAAGSPTPTPTTPTPTPTTPTPTPTGSDLGKKLLEAARAGQDDEVRILLKAGADVNAKDRYGDTPLHLAADIGHLEIVEVLLKAGADVNAEDYFGNTPLHLAASYGHLEIVEVLLKAGADVNAKDDYGNTPLHLAANTGHLEIVEVLLKAGADVNAQDKSGKTPADLAADAGHEDIAEVLQKAAGSPTPTPTTPTPTPTTPTPTPTGSDLDKKLLEAARAGQDDEVRILLKAGADVNAKDSTGWTPLHLAAPWGHPEIVEVLLKAGADVNAKDFQGWTPLHLAAAAGHLEIVEVLLKAGADVNAQDKSGKTPADLAADAGHEDIAEVLQKAAGSPTPTPTTPTPTPTTPTPTPTGSDLGKKLLEAARAGQDDEVRELLKAGADVNAKDYFSHTPLHLAARNGHLKIVEVLLKAGADVNAKDFAGKTPLHLAANEGHLEIVEVLLKAGADVNAQDIFGKTPADIAADAGHEDIAEVLQKAA
notes: Four designed ankyrin repeat domains (serum albumin, HGF, VEGF-A, serum albumin); one molecule is used here

Key:
[1] = target: T1, human HGF (human, UniProt P14210 32-728); test: SPR (ProteOn), human HGF immobilised, injection scheme PBST-hVEGF-A-PBST
T1 construct: also called hepatocyte growth factor
T1 sequence (P14210 32-728 limits assumed): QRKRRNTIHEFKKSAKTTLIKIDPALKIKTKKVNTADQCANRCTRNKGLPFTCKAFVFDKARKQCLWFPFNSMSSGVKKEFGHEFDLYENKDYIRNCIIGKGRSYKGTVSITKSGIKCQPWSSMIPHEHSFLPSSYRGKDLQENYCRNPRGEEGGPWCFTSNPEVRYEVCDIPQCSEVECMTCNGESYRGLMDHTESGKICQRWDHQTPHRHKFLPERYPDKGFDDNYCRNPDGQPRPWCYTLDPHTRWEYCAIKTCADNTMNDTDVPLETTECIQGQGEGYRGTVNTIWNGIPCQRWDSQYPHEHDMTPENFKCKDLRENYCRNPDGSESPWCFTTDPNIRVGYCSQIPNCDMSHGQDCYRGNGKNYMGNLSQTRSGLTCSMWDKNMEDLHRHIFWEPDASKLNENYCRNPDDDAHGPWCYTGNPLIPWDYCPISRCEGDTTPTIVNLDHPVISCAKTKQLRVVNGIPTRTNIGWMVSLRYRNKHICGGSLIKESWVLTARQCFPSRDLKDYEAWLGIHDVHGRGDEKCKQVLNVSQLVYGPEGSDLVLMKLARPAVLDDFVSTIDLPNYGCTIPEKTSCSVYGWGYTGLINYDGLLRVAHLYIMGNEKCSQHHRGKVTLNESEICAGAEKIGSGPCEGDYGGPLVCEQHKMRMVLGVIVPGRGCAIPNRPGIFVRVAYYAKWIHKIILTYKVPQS
Experimental: FIG. 8. SPR analysis of recombinant binding proteins. […] The control injections indicate that no unspecific interaction occurs. RU: resonance units; t: time in seconds.
SPR was measured in a similar way as described in Example 2, with the following setup. 2700 RU human HGF were immobilized on a sensor chip. […] Following this, 100 nM human VEGF-A or PBST were injected for 180 seconds (leading to saturation) followed by a PBST wash of 360 seconds. Finally, 100 nM human serum albumin or PBST were injected for 180 seconds followed by a PBST wash of 600 seconds.

[2] = target: B1; test: ELISA, immobilised target
[3] = target: T2, Human PDGF-AB (human, UniProt P04085 87-211; P01127 82-190, limits assumed); test: ELISA, immobilised target
T2 construct: Heterodimer by its name
T2 sequence (P01127 82-190 limits assumed, chain 2 of 2, other chains not shown): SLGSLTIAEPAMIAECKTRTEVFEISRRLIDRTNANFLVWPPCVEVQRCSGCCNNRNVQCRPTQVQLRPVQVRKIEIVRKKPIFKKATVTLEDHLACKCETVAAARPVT

[4] = target: T3, Human VEGF-C (human, UniProt P49767 103-227, limits assumed); test: ELISA, immobilised target
T3 sequence (looked up): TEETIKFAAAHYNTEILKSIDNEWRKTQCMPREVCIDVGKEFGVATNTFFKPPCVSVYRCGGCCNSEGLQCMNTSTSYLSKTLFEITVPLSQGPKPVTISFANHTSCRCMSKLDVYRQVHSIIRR

[5] = target: T1, human HGF; test: cell-based or functional assay
[6] = target: B1; test: cell-based or functional assay
[7] = target: biotinylated VEGF-A165 (Reliatech, #300-076Bi-L) (UniProt P15692-4 27-191, biotinylated); test: VEGF-A/VEGFR-2 competition FRET (HTRF); 10 nM VEGF-R2-Fc, 10 nM biotinylated VEGF-A165
Experimental: Such competition FRET and ELISA assays are well known to the person skilled in the art. […] In parallel, 5 μl of Streptavidin-Tb (streptavidin-Lumi4-terbium cryptate donor, Cisbio #610SATLB) and 5 μl of PAb anti-hIgG-de (D2-conjugated goat anti-Human IgG, Cisbio #61 HFCDAA) were added to 500 μl of PBST-BSA buffer and incubated for 20 minutes (2× reagent). Ten μl/well of 2× reagent were dispensed in a 384-well HTRF white-plate (Thermo Fisher Scientific Inc.) and 5 μl/well of four-time concentration hVEGF-R2-Fc fusion (Reliatech #SFC-008) were added. Five μl of the preincubated competition mixture were then added to wells. The complete reaction mix was incubated in the dark for 1 hour at room temperature before the fluorescence read out using a fluorescence reader. […] The read-out was done for A665 nm and […] wavelength (Excitation 340 nm).

[8] = target: B1; test: VEGF-A competition binding ELISA (FIG. 7C)
Experimental: (§1) After washing away any unbound substances, an enzyme-linked polyclonal antibody specific for VEGF-A is added to the wells. Following a wash to remove any unbound antibody-enzyme reagent, a substrate solution is added to the wells and color develops in proportion to the amount of VEGF-A bound in the initial step. The color development is stopped and the intensity of the color is measured. […] IC₅₀ values were calculated from such titration curves obtained as described above using Graph Pad Prism software and standard procedures known to the person skilled in the art. For designed ankyrin repeat domains with binding specificity to HGF, a cMet receptor competition assay was performed. For that purpose, 5 nM of human cMet receptor in PBS were immobilized on Maxisorp plates overnight at 4° C. After washing with PBS 0.05% TWEEN 20, the plate was blocked for 2 h with shaking at 300 rpm using PBS containing 0.05% TWEEN 20 and 0.25% Casein at RT. A constant concentration of 5 nM human HGF was pre-incubated for 30 min at RT with a 1000 nM-1 pM of Proteins #23, #26, #28, and #29 (1:4 dilution series each) on a dilution plate in PBS 0.05% TWEEN 20. After washing of the ELISA plate with PBS 0.05% TWEEN, pre-incubated samples were transferred to the ELISA plate and plate was incubated for 2 h at RT with shaking at 300 rpm. […] Readout was done at A450 using A620 as reference wavelength. […]

[9] = target: mouse serum albumin (mouse, UniProt P07724 25-608); test: ELISA, immobilised target
Experimental: (§2) 100 μl or 50 μl of 20 nM target (VEGF-A, HGF, or serum albumin) in PBS per well were immobilized in a Maxisorp plate (Nunc, Denmark) overnight at 4° C. After washing 5 times with 300 μl PBST (PBS supplemented with 0.1% Tween 20), the wells were blocked with 300 μl PBST-C (PBST supplemented with 0.25% casein) for 2 h at room temperature with shaking at 450 rpm on a Titramax 1000 shaker (Heidolph, Germany). […] After washing 5 times as described above, bound anti-designed ankyrin repeat domain antibody was detected using 100 μl or 50 μl/well goat anti-rabbit IgG-HRP conjugate in PBST-C for 1 h at room temperature with shaking at 450 rpm. After washing 5 times as described above, the ELISA was then developed using 100 μl BM soluble blue POD substrate (Roche, Switzerland), diluted 1:4 in water. The reaction was stopped after 5 min using 100 μl 1 M H₂SO₄. The OD (OD 450 nm-OD 620 nm) was then recorded.
(§3) Cynomolgus monkey VEGF-A is identical to human VEGF-A and was thus not tested separately.

[10] = target: T4, rat VEGF-A (rat, UniProt P16612-2 27-190, limits assumed); test: ELISA, immobilised target
T4 sequence (looked up): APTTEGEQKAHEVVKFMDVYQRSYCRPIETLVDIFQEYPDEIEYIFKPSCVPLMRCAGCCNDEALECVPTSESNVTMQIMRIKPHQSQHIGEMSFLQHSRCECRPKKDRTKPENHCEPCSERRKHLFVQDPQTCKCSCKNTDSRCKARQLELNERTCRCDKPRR
Experimental: as §2, §3

[11] = target: mouse HGF (mouse, UniProt Q08048 33-728); test: ELISA, immobilised target
mouse HGF, sequence (Q08048 33-728 limits assumed): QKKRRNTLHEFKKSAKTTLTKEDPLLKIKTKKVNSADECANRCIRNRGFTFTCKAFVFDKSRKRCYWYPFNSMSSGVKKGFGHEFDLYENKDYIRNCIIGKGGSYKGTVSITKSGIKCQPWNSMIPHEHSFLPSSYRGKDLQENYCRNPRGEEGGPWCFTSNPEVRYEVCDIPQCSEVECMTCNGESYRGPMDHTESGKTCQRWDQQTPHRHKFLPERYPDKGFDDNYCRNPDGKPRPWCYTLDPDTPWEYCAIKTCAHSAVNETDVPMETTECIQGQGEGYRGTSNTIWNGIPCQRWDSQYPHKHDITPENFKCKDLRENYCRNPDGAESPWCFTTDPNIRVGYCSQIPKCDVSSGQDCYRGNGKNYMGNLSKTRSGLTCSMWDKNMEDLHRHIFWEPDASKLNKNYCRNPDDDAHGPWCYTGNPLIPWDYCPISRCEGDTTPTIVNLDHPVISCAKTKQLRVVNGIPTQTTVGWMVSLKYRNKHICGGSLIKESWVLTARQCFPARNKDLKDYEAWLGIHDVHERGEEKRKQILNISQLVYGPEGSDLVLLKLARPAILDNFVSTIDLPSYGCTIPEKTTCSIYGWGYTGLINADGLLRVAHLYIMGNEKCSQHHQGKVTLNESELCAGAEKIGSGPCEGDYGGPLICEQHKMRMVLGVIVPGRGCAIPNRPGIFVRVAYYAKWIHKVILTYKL
Experimental: as §2, §3

[12] = target: cynomolgus monkey serum albumin (cynomolgus monkey, UniProt A2V9Z4 25-608); test: ELISA, immobilised target
cynomolgus monkey serum albumin, sequence (A2V9Z4 25-608 limits assumed): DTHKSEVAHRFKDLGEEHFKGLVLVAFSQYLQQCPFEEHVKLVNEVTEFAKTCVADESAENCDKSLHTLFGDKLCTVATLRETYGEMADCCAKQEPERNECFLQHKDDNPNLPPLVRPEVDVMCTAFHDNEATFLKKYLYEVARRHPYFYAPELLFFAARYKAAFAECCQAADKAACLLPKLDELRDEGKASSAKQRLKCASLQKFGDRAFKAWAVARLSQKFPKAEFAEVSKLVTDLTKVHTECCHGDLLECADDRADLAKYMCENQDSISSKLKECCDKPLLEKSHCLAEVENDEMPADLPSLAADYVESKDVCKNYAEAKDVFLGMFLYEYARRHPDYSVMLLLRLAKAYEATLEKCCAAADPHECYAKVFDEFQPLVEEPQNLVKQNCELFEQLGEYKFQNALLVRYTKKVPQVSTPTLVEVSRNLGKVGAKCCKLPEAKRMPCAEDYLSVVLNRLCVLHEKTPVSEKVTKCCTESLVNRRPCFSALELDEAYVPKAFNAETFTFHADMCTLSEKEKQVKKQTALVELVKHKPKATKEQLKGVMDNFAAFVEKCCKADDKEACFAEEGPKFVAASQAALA
Experimental: as §2, §3

[13] = target: rat serum albumin (rat, UniProt P02770 25-608); test: ELISA, immobilised target
rat serum albumin, sequence (P02770 25-608 limits assumed): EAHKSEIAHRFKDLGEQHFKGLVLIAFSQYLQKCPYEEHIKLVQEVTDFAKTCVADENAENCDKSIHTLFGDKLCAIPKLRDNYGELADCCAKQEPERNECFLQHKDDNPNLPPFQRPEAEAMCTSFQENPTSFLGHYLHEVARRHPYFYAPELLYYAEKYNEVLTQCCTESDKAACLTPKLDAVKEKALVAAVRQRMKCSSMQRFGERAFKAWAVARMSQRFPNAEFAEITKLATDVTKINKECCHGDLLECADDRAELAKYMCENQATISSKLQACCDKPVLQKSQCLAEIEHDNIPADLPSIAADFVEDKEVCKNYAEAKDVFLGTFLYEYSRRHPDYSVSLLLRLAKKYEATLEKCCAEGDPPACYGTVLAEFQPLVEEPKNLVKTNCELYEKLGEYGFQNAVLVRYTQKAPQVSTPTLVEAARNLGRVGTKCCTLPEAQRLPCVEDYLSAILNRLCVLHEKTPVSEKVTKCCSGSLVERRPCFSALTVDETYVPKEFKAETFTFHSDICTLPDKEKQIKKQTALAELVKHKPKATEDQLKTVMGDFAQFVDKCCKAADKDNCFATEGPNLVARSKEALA
Experimental: as §2, §3

[14] = target: T5, mouse VEGF-A (mouse, UniProt Q00731-2 27-190, limits assumed); test: ELISA, immobilised target
T5 sequence (looked up): T4 sequence (looked up) with A10S, V14I, V75I
Experimental: as §2, §3

[15] = target: dog serum albumin (dog, UniProt P49822 25-608); test: ELISA, immobilised target
dog serum albumin, sequence (P49822 25-608 limits assumed): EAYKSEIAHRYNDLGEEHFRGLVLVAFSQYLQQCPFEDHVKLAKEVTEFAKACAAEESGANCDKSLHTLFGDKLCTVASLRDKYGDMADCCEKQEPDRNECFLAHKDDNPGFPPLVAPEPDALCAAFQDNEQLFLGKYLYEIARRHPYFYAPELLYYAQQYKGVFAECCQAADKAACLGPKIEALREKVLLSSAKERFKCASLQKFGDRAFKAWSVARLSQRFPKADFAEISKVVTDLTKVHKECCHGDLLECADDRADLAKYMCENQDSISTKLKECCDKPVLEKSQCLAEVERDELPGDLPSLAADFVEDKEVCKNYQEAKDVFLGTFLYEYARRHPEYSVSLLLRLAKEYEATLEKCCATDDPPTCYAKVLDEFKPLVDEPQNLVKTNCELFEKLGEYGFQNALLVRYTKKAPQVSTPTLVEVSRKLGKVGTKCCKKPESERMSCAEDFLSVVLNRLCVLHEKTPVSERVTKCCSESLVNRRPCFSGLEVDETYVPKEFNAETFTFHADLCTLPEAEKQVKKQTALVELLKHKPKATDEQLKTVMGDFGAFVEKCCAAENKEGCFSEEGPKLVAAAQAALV
Experimental: as §2, §3

[16] = target: T1, human HGF; test: ELISA, immobilised target
Experimental: as §2, §3

[17] = target: B1; test: ELISA, immobilised target; remark: listed apart in the source
Experimental: as §2, §3

[18] = target: cynomolgus monkey HGF (cynomolgus monkey, UniProt C9E9X5 32-728); test: ELISA, immobilised target
Experimental: as §2, §3

[19] = target: T6, human serum albumin (human, UniProt P02768 25-609); test: ELISA, immobilised target
T6 construct: For SEC-MALS purified from CSL Behring 20% solution; also called HSA; SA (human)
T6 sequence (P02768 25-609 limits assumed): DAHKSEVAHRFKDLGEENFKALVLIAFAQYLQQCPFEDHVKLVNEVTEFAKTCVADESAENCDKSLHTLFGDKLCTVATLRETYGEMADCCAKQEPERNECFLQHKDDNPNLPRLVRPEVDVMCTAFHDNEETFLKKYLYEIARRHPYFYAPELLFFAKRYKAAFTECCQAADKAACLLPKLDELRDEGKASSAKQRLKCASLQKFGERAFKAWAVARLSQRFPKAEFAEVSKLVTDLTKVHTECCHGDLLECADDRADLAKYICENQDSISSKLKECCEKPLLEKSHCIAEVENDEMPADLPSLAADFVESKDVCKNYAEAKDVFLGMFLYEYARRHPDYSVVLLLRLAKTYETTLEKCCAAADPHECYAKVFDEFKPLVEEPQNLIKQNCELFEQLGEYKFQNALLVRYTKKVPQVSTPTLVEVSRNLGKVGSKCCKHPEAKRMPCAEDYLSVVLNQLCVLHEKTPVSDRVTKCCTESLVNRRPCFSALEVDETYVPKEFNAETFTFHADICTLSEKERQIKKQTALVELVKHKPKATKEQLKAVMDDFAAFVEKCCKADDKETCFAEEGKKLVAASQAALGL
Experimental: as §2, §3

[20] = target: T1, human HGF; test: HGF/cMet competition ELISA as in Example 3
Experimental: as §1

[21] = target: B1; test: VEGF-A competition ELISA as in Example 3; competitor: immobilised anti-VEGF-A monoclonal antibody
Experimental: as §1

B1: no binding (tested: 100 nM) [1].

With B2 the EC50 [2] was 0.024 nM, the binding result [3] was “no binding (tested: 100 nM to 0.01 pM)” and the binding result [4] was “no binding (tested: 100 nM to 0.01 pM)”. For the same binder, the “Inhibition of cMet phosphorylation in A549 cells, IC50” value [5] was 0.184 nM, the “inhibition of cMet phosphorylation in A549 cells, IC50” value [5] was < 1 nM and the “Inhibition of VEGF-A-induced HUVEC proliferation, IC50” value [6] was 5.7 ng/ml and 91.3 pM. For the same binder, the “inhibition of proliferation of HUVECs, IC50” value [6] was 0.1 to 0.15 nM, the IC50 [7] was 0.6 nM and the IC50 [8] was < 0.01 nM. The EC50 [9] was 0.015 nM, the EC50 [10] was 0.022 nM and the EC50 [11] was 0.045 nM. It also gave an EC50 [12] of 0.017 nM, an EC50 [13] of 0.017 nM and an EC50 [14] of 0.021 nM. The EC50 [15] was 0.023 nM, the EC50 [16] was 0.024 nM and the EC50 [17] was 0.024 nM. It also gave an EC50 [18] of 0.04 nM, an EC50 [19] of 0.013 nM and an IC50 [20] of 0.92 nM. The IC50 [21] was 0.0045 nM.
